Assay results published in US20090186027A1.

Tests used:
[1] = target: β-amyloid peptide 1-40 (UniProt P05067); assay: cell-based or functional assay
[2] = target: biotinylated peptide composed of amino acids 1-16 of the Aβ peptide (UniProt P05067); assay: phage ELISA screen of colonies after biopanning, negative control

## 10D5 (monoclonal antibody against the N terminus of Aβ peptide)
[1]
  Percent Aggregation (ThT emission at 485 nm), plus 1 µM 10D5: 61.4%
  Percent Disaggregation (ThT), plus 1 µM 10D5: 38.6%

## helper phage M13KO7
[2]
  absorbance at 492 nm (OD): 0.003 to 0.005 OD
